Reference: paper PMC8163506, “A novel ATP dependent dimethylsulfoniopropionate lyase in bacteria that releases dimethyl sulfide and acryloyl-CoA” (eLife, 2021)

Legend:
Assay in all cases: DMS production by GC, nonlinear fit of initial rates
Format in all cases: biochemical, Psychrobacter sp.
[1] = substrate: CC(C)(COP(=O)(O)OP(=O)(O)OC[C@H]1O[C@@H](n2cnc3c(N)ncnc32)[C@H](O)[C@@H]1OP(=O)(O)O)[C@@H](O)C(=O)NCCC(=O)NCCS; details: co-substrates DMSP and ATP, pH 8.5, 40 °C
[2] = substrate: C[S+](C)CCC(=O)[O-]; details: co-substrates ATP and CoA, pH 8.5, 40 °C
[3] = substrate: Nc1ncnc2c1ncn2[C@@H]1O[C@H](COP(=O)(O)OP(=O)(O)OP(=O)(O)O)[C@@H](O)[C@H]1O; details: co-substrates DMSP and CoA, pH 8.5, 40 °C

B1: DddX (Psychrobacter sp.) (protein)
chain: LTGQIIEYTIKIQTIYTGNFKHKNGFLKMIERGIAMKKENLKILAKKAQTIAIVGANYRFATRVLLENLDKMDFTGTIYLVNPRYENIDGVRCYQSLLEIEDTIDVVVGLVNPQLMIQVASNASKINAKVLVIPGGGYGESGVEGQNIQNAILERAADSGMRIVGPNCMGYLNMHAQFTPYIGTLHRPLRPIKKGPVSIISQSGSVNDAFIASKLGISKIYSTGNEADVQMHDYLNLLAEDPETSVIILYIEAIRNHLSFLRALDLCSKNKKPVIAIKVGRTIKSAAVANAHSGALAGDYEIEKLFLEGHGVLFVEDIDQAVAVALLLSQPYLPTVNTVAALTVSGGQAGILLDLAEDYGVDFPDFSAVTNYEIASKLPELGGLSNPLDIWGKSSKDFSEVSNICLSSIVKDADIGIITVAIDAPIGQGDHEFDFTSIPAKDLASLRGNSDKPFLYFSHIQTEFDPRVESILDEAGIAVIQGSRNALVACRALFKYKEFLEKNNHTPIYSVEDLSIQKGLKLLHDNEGRKLLDESGFVSPREQVVTSLQEGVDYAESIGYPVVLKAQGLAHKTDVGGVALNIKSAAKLKKAWGKMEHLNSPYYLIQEMVTDGFETILAYRTDMNYGPVVIFGLGGIYTELFNEVVLAVPPITHKKAEQMVKSIPMLWKSIEGYRGNPALDLEALTASIVQMGETAMEKYEEIVEFEINPLSVRVKGVVALDVLASVKTTAAKEADAEEADVKKCSELV
notes: full length (2247 bp gene), pET-22b, C-terminal His tag, E. coli BL21(DE3); dimer in solution
[1]
  Km: 400 µM
[2]
  Km: 400 µM
  kcat: 0.7 s⁻¹
[3]
  Km: 2500 µM
